# Test results taken from US20260345776 (published 2026).
# B1: b-SpyTag003(D2)-K(folate) (peptide)
# chain: RGVPHIVMVDAYKRYKG
# modifications: biotinylated; two D-arginine substitutions; additional C-terminal Lys conjugated to folate (folate is the FOLR1-binding moiety)
# Experiments:
# FOLR1 [1] = target: T1, FOLR1 (human, UniProt P15328); experiment: FACS, FOLR+ KB cells
# FOLR1 [2] = target: T1, FOLR1; experiment: BLI, 25C
# T1 sequence (P15328 25-234): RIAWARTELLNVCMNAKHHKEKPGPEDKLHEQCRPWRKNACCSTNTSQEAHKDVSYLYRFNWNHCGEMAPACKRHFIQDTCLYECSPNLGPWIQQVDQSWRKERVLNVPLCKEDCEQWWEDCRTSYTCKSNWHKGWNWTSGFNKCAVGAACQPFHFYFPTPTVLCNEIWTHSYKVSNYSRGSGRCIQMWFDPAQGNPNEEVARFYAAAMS
binder,measurement,setting,value
B1,Kd,FOLR1 [1],16.1 nM
same,Kd,FOLR1 [2],0.345 nM
